Patent WO2012175740A1

Molecular target: cyno IgE c(epsilon)2-c(epsilon)3-c(epsilon)4 Fc fragment with C-terminal (His)10 tag (cynomolgus monkey)
Experiment: Alphascreen, competition with HuFc(epsilon)RI(alpha)Fc for cyno IgE Fc

Sequence of cyno IgE c(epsilon)2-c(epsilon)3-c(epsilon)4 Fc fragment with C-terminal (His)10 tag (cynomolgus monkey) (chain, as listed by the source): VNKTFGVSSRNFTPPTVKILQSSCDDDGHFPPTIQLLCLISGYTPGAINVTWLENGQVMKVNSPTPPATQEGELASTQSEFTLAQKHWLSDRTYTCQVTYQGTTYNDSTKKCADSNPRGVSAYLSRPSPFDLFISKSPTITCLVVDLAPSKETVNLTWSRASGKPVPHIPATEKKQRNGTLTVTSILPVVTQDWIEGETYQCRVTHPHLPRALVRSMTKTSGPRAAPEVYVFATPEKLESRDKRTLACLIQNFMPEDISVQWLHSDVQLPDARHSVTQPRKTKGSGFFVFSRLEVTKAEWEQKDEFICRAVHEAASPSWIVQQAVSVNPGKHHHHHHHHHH

% inhibition at 250 nM Nanobody: 38%
B1: Nanobody 39B2 (VHH, not shown: small tags and cut ends)
VHH: EVQLVESGGGLVQPGGSLRLSCAASGFTFGSYDMSWVRQAPGKGPEWVSAINSGGGSTYYADSVKGRFTISRDNAKNTLYLQMNSLKPEDTAVYYCSTDLGPWIEGTMEEYEYEYWGQGTQVTVSS
